Assay results from patent EP0723402B1.

Biological target: cyclin/cdk2 complexes immunoprecipitated from HeLa cell extracts by cdk2 antisera (UniProt P24941)
Assay: cell-based or functional assay

half maximal inhibition of histone H1 kinase activity: 250 ng
Substance: GST-SDI-1 fusion protein (Schistosoma japonicum glutathione S-transferase amino acids 1-226, hinge Pro-Arg-Gly-Asp-Pro-Pro-Ala, SDI-1)
